Measured values: PMC9404468

Columns and labels:
[1] = biological target: thyroid hormone receptor beta (TRb), His-tagged, from pETSUMO-TRb (UniProt P10828); assay: peptide or protein array
[2] = biological target: human Hsp90a (heat shock protein 90 alpha), purified full-length (human) (UniProt P07900); assay: peptide or protein array

Substance	EC50 [1]	EC50 [2]
human Hsp90a (heat shock protein 90 alpha), purified full-length (from UniProt P07900 1-732) (natural protein)	124 nM	
thyroid hormone receptor beta (TRb), His-tagged, from pETSUMO-TRb (from UniProt P10828 1-461)		1240 nM
